T1: Rpc31(aa 121–251)_Flag_ΔS151-G164 (S. cerevisiae, UniProt P17890 121-251, ΔS151-G164)
T1 sequence: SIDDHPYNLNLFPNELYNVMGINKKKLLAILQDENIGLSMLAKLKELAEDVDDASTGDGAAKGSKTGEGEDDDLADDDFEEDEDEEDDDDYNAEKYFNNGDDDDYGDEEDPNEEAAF

T2: Full-length Rpc34 protein with an N-terminal V5 epitope tag, Alexa 647-labeled (S. cerevisiae, UniProt P32910 1-317, Alexa Fluor 647 NHS Ester label (labeling efficiency ~0.8))
T2 construct: Rpc34 of S. cerevisiae, full-length protein; also called Alexa647-labeled Rpc34; fluorescently-labeled Rpc34 protein; source: E. coli BL21 (DE3) RIL, purified (Ni-Sepharose, SUMO tag removed with Ulp1, second Ni-Sepharose passage)
T2 sequence (looked up): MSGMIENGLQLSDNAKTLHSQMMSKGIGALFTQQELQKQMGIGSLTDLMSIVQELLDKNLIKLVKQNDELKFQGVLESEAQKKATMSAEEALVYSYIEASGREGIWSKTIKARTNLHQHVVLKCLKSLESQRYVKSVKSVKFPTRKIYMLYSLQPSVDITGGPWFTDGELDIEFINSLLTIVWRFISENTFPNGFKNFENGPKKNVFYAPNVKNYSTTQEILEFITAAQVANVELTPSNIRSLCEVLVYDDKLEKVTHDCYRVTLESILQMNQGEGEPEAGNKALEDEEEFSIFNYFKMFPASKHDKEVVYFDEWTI

B1: Full-length Rpc34 protein with an N-terminal V5 epitope tag, Alexa 647-labeled (natural protein)
chain: MSGMIENGLQLSDNAKTLHSQMMSKGIGALFTQQELQKQMGIGSLTDLMSIVQELLDKNLIKLVKQNDELKFQGVLESEAQKKATMSAEEALVYSYIEASGREGIWSKTIKARTNLHQHVVLKCLKSLESQRYVKSVKSVKFPTRKIYMLYSLQPSVDITGGPWFTDGELDIEFINSLLTIVWRFISENTFPNGFKNFENGPKKNVFYAPNVKNYSTTQEILEFITAAQVANVELTPSNIRSLCEVLVYDDKLEKVTHDCYRVTLESILQMNQGEGEPEAGNKALEDEEEFSIFNYFKMFPASKHDKEVVYFDEWTI
modifications: Alexa Fluor 647 NHS Ester label (labeling efficiency ~0.8)

What was measured:
[1] = biological target: T1, Rpc31(aa 121–251)_Flag_ΔS151-G164; assay: MST
[2] = biological target: B1; assay: MST
[3] = biological target: T2, Full-length Rpc34 protein with an …; assay: MST; Alexa647-labeled Rpc34 constant at 5 nM, unlabeled Rpc31 peptides titrated (WT 1.16 μM to 0.000035 μM); 5 mM sodium phosphate pH 8.0, 0.05% Tween 20; 25°C; MST-on time 5 s; three independent measurements; conditions: both partners purified

Row | Binder | Kd [2] | Kd [3] | further results
1 | B1 |  |  | Kd [1]: 6.1 µM
2 | Rpc31(121-251)-Flag_ΔG141-I150 (protein) SIDDHPYNLNLFPNELYNVMSKFNNADDVFTGTGLQDENIGLSMLAKLKELAEDVDDASTGDGAAKGSKTGEGEDDDLADDDFEEDEDEEDDDDYNAEKYFNNGDDDDYGDEEDPNEEAAF | 4.4 µM |  | 
3 | Rpc31(aa 121–251)_Flag (domain or fragment, S. cerevisiae, UniProt P17890 121-251, looked up, Rpc31 of S. cerevisiae, C-terminal aa 121-251; also called Rpc31 C-terminal Ser121-Phe251 peptide; Rpc31 (aa 121–251) peptide; source: E. coli BL21 (DE3) RIL, purified (Ni-Sepharose, SUMO tag removed with Ulp1, second Ni-Sepharose passage, Source15Q); not shown: FLAG, C-terminal, kept) SIDDHPYNLNLFPNELYNVMGINKKKLLAISKFNNADDVFTGTGLQDENIGLSMLAKLKELAEDVDDASTGDGAAKGSKTGEGEDDDLADDDFEEDEDEEDDDDYNAEKYFNNGDDDDYGDEEDPNEEAAF |  | 0.883 ± 0.339 µM | 
4 | Rpc31(aa 121–251)_Flag_E183K (domain or fragment, S. cerevisiae, UniProt P17890 121-251, looked up, Rpc31 of S. cerevisiae, C-terminal aa 121-251 with E183K; the methods describe only the wild-type construct; also called Rpc31 peptide with a Glu183Lys (E183K) point mutation; source: E. coli, recombinantly expressed and purified; not shown: FLAG, C-terminal, kept) SIDDHPYNLNLFPNELYNVMGINKKKLLAISKFNNADDVFTGTGLQDENIGLSMLAKLKELAKDVDDASTGDGAAKGSKTGEGEDDDLADDDFEEDEDEEDDDDYNAEKYFNNGDDDDYGDEEDPNEEAAF |  | 8.5 ± 5.6 µM | 
5 | Rpc31(121-251)-Flag_ΔL165-V185 (protein) SIDDHPYNLNLFPNELYNVMGINKKKLLAISKFNNADDVFTGTGDDASTGDGAAKGSKTGEGEDDDLADDDFEEDEDEEDDDDYNAEKYFNNGDDDDYGDEEDPNEEAAF | 1.2 µM |  | 

From PMC10201443, “Site-directed biochemical analyses reveal that the switchable C-terminus of Rpc31 contributes to RNA polymerase III transcription initiation” (Nucleic Acids Research, 2022)
